Data on 1 substance can be found in patent US20200270335A1.

In the experiment the target is LRP6 of Super TopFlash (STF, HEK293) cells (UniProt O75581). The experiment is described as follows: cell-based or functional assay.
LRP6 of Super TopFlash (STF, HEK293) cells, sequence (O75581 20-1613 limits assumed): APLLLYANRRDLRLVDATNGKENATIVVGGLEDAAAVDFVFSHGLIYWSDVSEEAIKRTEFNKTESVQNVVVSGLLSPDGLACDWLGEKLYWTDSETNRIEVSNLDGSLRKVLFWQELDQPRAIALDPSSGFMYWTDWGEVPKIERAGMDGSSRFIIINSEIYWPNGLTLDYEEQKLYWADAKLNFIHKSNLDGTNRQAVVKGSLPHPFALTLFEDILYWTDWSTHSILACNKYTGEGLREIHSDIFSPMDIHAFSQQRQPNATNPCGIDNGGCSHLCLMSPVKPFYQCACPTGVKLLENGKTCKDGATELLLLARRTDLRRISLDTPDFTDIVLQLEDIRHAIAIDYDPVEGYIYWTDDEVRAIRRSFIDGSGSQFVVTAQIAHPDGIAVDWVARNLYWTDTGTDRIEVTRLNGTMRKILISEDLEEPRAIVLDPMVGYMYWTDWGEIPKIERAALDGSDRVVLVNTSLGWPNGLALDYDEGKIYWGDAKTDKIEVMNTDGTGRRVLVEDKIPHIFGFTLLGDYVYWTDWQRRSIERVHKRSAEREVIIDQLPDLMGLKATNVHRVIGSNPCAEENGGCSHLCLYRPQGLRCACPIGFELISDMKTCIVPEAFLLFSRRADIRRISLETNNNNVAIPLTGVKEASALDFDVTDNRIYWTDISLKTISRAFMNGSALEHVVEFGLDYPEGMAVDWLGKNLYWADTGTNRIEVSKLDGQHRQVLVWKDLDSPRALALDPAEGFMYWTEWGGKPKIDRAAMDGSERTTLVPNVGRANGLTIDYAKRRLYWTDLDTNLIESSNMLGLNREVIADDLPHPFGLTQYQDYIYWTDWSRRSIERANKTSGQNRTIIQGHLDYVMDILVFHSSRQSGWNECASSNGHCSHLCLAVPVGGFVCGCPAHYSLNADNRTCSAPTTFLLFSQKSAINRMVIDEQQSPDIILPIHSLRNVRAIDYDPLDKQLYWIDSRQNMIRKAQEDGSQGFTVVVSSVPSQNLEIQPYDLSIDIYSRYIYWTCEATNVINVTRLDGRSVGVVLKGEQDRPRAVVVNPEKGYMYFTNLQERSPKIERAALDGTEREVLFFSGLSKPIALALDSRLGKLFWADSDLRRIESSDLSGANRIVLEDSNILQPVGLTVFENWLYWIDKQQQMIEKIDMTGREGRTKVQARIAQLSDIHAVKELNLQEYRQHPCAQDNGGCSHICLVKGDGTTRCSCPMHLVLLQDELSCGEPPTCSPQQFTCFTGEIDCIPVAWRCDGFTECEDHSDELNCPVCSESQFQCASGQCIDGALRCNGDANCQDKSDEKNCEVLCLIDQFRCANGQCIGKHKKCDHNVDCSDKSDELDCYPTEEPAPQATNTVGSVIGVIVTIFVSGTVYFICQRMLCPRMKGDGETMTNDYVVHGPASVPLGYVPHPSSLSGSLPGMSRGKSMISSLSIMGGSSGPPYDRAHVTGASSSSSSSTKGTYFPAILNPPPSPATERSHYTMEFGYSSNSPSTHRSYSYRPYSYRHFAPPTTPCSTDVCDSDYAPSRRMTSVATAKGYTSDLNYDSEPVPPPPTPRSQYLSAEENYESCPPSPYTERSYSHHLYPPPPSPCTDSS

Turning to “ACE 448 HSA-DKK2 full length (C1+C2) (from UniProt P02768 25-609; Q9UBU2 34-259) (ligand)”, the activity in the Super Top Flash assay against the HSA-DKK2 C2 proteins is 10 fold.
